In patent US20070172470A1, “Phosphatase regulation of nucleic acid transcription” (The Regents of the University of California, priority 2003, published 2007):

Key:
[1] = system: ElALuc, pGL3-Luc and Gal4-TATA-Luc constructs; test: Luciferase reporter assay, basal promoter activity; format: cell-based, human; settings: cotransfected
From the text: (§1) Gal4-DNA binding domain-SCP1 fusion protein expression plasmids-were cotransfected in HEK293 cells with a Gal 4-TKLuc reporter plasmid and luciferase gene expression quantitated. In all panels, results of triplicate transfections are shown +/− SD. Data is expressed as fold-activation experimental/control). […] The indicated amounts of SCP1 or mutant SCP1 expression plasmids were cotransfected in HEK293 cells along with Gal 4-VP16 expression and Gal 4-TK-Luc reporter plasmids and luciferase activity was quantitated. […] The indicated receptor expression plasmids were cotransfected with their cognate promoter-reporter plasmids with or without SCP1 or mutant SCP1 expression plasmids. Cells were treated or untreated with receptor-specific ligands as described infra. […] The indicated concentrations of SCP1 and mutant SCP1 expression plasmids were cotransfected with LMX1 and E47 expression plasmids and the rat insulin 1 promoter-luciferase reporter gene. Luciferase activity was measured as described.
(§2) Tissue Culture and Transfections: Human 293, COS7 and CV1 cells were grown at 37° C. in DMEM supplemented with 10% normal calf serum (BRL). Sub-confluent cells were transfected in 6 well tissue culture dishes using Effectene (Qiagen) according to the manufacturer's instructions. Reporter and activator plasmids (100 ng each) and Flag SCP1 (80 ng) or its mutant were used per well. […]

[2] = system: 28 aa CTD heptad repeat peptide with Ser 5 phosphate or Ser 2 phosphate; test: CTD phosphopeptide phosphatase assay (malachite green); format: biochemical; settings: 25 μM phosphopeptide, 60 mins at 37° C.
Experimental: The indicated amounts of. SCP1 were incubated with the phosphopeptide substrate and phosphate released was measured as described infra.
N-terminal biotinylated CTD phosphopeptides, comprised of 4 tandem repeats YSPTSPS and containing phosphoserine at position 2 or position 5, were synthesized (Alpha Diagnostics, San Antonio, Tex.). Phosphatase reaction mixtures (50 μl) containing 50 mM Tris-acetate, pH 5.5, 10 mM MgCl2, 0.5 mM DTT, 10% glycerol, 25 μM of phosphopeptide and wild type or mutant SCP1 were incubated for 60 mins at 37° C. The reactions were quenched by adding 0.5 ml of malachite green (Biomol). Phosphate release was measured at A620 and quantified relative to a phosphate standard curve.

[3] = system: PPARγ receptor activity on PPARγ promoter response element; test: Luciferase reporter assay, ligand-activated PPARγ receptor; format: cell-based, human
From the text: as §1, §2

[4] = system: T3 receptor activity on DR+4 TRE-TK-Luc reporter; test: Luciferase reporter assay, ligand-activated T3 receptor; format: cell-based, human; settings: 100 nM T3, DR+4 TRE-TK-Luc
From the text: as §1, §2

[5] = system: P19 mouse embryonic stem cells; test: Neuronal differentiation of P19 cells; format: cell-based; settings: clonal P19 line, retinoic acid, selective medium
Experimental: P19 cells, C, differentiated GFP expressing P19 cells; D, differentiated SCP1-expressing P19 cells; F, differentiated REST/NRSF-expressing P19 cells. Numbers of NLC per field are shown. *p=0.001 compared to WT 19 cells; **p=0.008 compared to WT P19 cell using student's t-test.
P19 stably expressing REST/NRSF.
These cell lines were maintained in α-MEM/10%FBS with […] G418. To induce neuronal differentiation, P19 cells were allowed to aggregate in bacterial grade petri-dishes (Fisher) at a seeding density of 1×10^5cells/ml in the presence of 1×10^−6M all-trans retinoic acid. After 3 days of aggregation, cells were dissociated into single cells by 0.05% trypsin-0.53 mM EDTA (Gibco). Trypsin was removed by centrifugation and the cells were plated in 6 cm tissue culture dishes (Nunc). at a density of 1×10^5 cells/cm^2 in Neurobasal medium/N2 supplement (Invitrogen) in the presence or absence of 1 μg/ml fibronectin (Invitrogen). The cells were cultured for 5 days after which average cell numbers/field were determined. Cells were either lysed to prepare total RNA (Rneasy kit, Qiagen) or stained with TuJ1 antibody (Babco).
For immunostaining, cells were fixed for 10 mins with 4% paraformaldehyde. TuJ1 antibody was used at 1:2000 and secondary antibody used was FITC-conjuagated anti-mouse (1:3000).

[6] = system: Gal 4-TK-Luc reporter stimulated by Gal 4-VP16; test: Luciferase reporter assay, Gal 4-VP16 stimulated gene expression; format: cell-based, human; settings: HEK293 cells
From the text: as §1, §2

B1: SCP1: small CTD phosphatase-1, full-length 261 aa human protein, SEQ ID NO:2 (protein, listed as Homo sapiens)
chain: MDSSAVITQISKEEARGPLRGKGDQKSAASQKPRSRGILHSLFCCVCRDDGEALPAHSGAPLLVEENGAIPKTPVQYLLPEAKAQDSDKICVVIDLDETLVHSSFKPVNNADFIIPVEIDGVVHQVYVLKRPHVDEFLQRMGELFECVLFTASLAKYADPVADLLDKWGAFRARLFRESCVFHRGNYVKDLSRLGRDLRRVLILDNSPASYVFHPDNAVPVASWFDNMSDTELHDLLPFFEQLSRVDDVYSVLRQPRPGS
- reporter gene expression from basal promoter constructs [1]: no significant effect
- dephosphorylation of Ser 5 versus Ser 2 phosphopeptide [2]: preferentially dephosphorylates the Ser 5 phosphopeptide
- ligand-activated PPARγ receptor activity [3]: inhibited
- ligand-activated T3 receptor activity [4]: inhibited
- effect on neuronal differentiation [5]: did not affect the extent of neuronal differentiation
- Gal 4-VP16 stimulated luciferase activity [6]: strongly inhibited
